tested on: G-clamp-N3 (biotin conjugate); test: pull-down binding Z-score (relative to library population); higher = stronger binding; details: RNA library: Library-1 (pre-miRNA loops + repeats)
Method in brief: (§1)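 The RNA library, end-labelled with Cy5 or Cy3, was heat-folded in phosphate/NaCl/KCl buffer, and 1 μg was incubated at 25 °C for 60 min with streptavidin beads carrying 100 pmol of biotin-conjugated small molecule. Hot SDS released the bound RNA, which was then hybridised to a DNA barcode microarray for 20 h at 55.5 °C. For scoring binding, signal from beads alone was subtracted, replicate barcoded probes were averaged after discarding the highest and lowest, and each value was turned into a Z-score from the library mean and standard deviation.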

Sequence | pull-down binding Z-score
GCUUCUGCUGCAUGAUCUCCGAGUCCCUGGGGGUAGAGAUGAUGGGGCACUGGGAGGU [hsa-mir-1282] | 0.676
GCUUGCUGUACAUAACUCAAUAGCCGGAAGC [hsa-mir-129-2] | -0.369
GCUUGCUGUUCCUCUCAACAGUAGUCAGGAAGC [hsa-mir-129-1] | -0.381
GCUUGGAGCCUUGGUAGGGAAGCAAGCUGAGGAGAUAGGA [hsa-mir-7154] | 1.23
GCUUUAUGUCCUGACCCAGCUAAAGC [hsa-mir-22] | -0.155
GCUUUCUGUGGUCAGAAAGAAAAGCAAGU [hsa-mir-520f] | 1.15
GCUUUUCACCUGUGAUCCCAGGAGAGGAAGC [hsa-mir-646] | -0.741
GGAAACUGAGACUUUGUAACUAUGUCUCAGUCUCA [hsa-mir-452] | -0.74
GGAAAGGGGAUGCAGAGCCCUGCC [hsa-mir-4647] | 1.97
GGAACACUAUAUUAAUCAGGUUUCC [hsa-mir-6509] | -0.0674
GGAAGAAGGCUGAGGGAGAUGCCUUCUUCC [hsa-mir-6512] | 0.436
GGAAGACACAUGAGCAGUGCCUCCACUUCACGCCUCUCCC [hsa-mir-6780b] | -1.13
GGAAGGGAGCCCCAUUUACAGUGGUAACUUCCUUUCC [hsa-mir-5006] | -0.388
GGAAGGGCGCCUGUGCUUCGUCC [hsa-mir-572] | 0.21
GGAAUAGUGCUCCUGGUUGUUUC [hsa-mir-1180] | 0.894
GGAAUCCUACGUGAGGGACAAUCAUUCAGACCCACGUAGCAGUGUUCU [hsa-mir-1299] | 0.0519
GGACAGGGAUUCUUUUCACUGUU [hsa-mir-599] | 1.08
GGACAUCCUUCCAUAGUAAAUAAGCGGUGCC [hsa-mir-8064] | -0.584
GGACCCUCUCUCUACCUCU [hsa-mir-4315-1_4315-2] | -0.489
GGACGUCACCACCAUGGCC [hsa-mir-650] | -1.19
GGACUCAGCCCUGUGCUGAGCCC [hsa-mir-5587] | -0.0279
GGACUUGCGGUUCA [hsa-mir-8057] | -1.11
GGAGAAGACUUUUCCUUUCCUCC [hsa-mir-4660] | -0.415
GGAGACACUUUCACUAUAUAUAGUGGCUCC [hsa-mir-3156-2] | -0.175

Sequence | pull-down binding Z-score
GGAGACACUUUUACUAUAUAUAGUGGCUCC [hsa-mir-3156-1] | -0.0968
GGAGACCCUAUACAUACCUGUUUCC [hsa-mir-5581] | -2.1
GGAGACGGGUCUUUCUC [hsa-mir-1208] | -1.52
GGAGAGGAUCCACCUGUCCUGUCC [hsa-mir-6165] | 0.202
GGAGAGUAUGGUCACAGCAGCAUCCUCC [hsa-mir-6780a] | 0.186
GGAGAUCGUACC [hsa-mir-4430] | -0.504
GGAGAUUGGAGUGGCCAGUGUUCCUAAACAAUUC [hsa-mir-4263] | -0.451
GGAGCAGACAGACCCAACCUCAUGCUCC [hsa-mir-6763] | -0.993
GGAGCCCGAGCAGCCGCGGUGAA [hsa-mir-7706] | -1.54
GGAGCCUUCCCCAGAGGAGUCAGGCC [hsa-mir-4312] | 0.386
GGAGCUCAGCACCUGCCUGCCACCCACGCAGACCAGCCCCUGCUCUGUUCCCACAG [hsa-mir-4648] | -0.622
GGAGCUCUGUCCUGUCUCACUCAUUGCUCC [hsa-mir-6749] | -0.199
GGAGCUCUGUGCCUUUGGGUCCUGGUGAGCUCU [hsa-mir-6070] | 0.246
GGAGCUGGCUGCUGGCCUCAGUUCU [hsa-mir-5001] | -1.38
GGAGGCACUGCCAGGGCUGCCCAC [hsa-mir-1202] | -0.43
GGAGGCAUGAAUGAGCCAUCUUUCCAAUGCCUUUC [hsa-mir-4743] | -1.03
GGAGGCCCCGCCCUGCUGCCGACCCUGUGGAGCGGAGGGUGAAGCCUCC [hsa-mir-3180-5] | 0.844
GGAGGCCCCGCUCUGCUGCCGACCCUGUGGAGCGGAGGGUGAAGCCUCC [hsa-mir-3180-4] | 1.15
GGAGGGUGAGCUUUCUGAAAACCCCUCC [hsa-mir-188] | 0.536
GGAGUCCUCUAGACACC [hsa-mir-6510] | -0.716
GGAGUUGAUGCACAGUUAUCCAGCUCC [hsa-mir-337] | -0.406
GGAUAAGAAUCAGUCAC [hsa-mir-217] | -0.462
GGAUAGAAACUAUUAUUCUAUUC [hsa-mir-664a] | -0.818
GGAUCAUGUUUGCCCCCGUGGACAGCUCUCUGGUGUGCUCCUCCUGCCAUCCUGCCCACCCCUGCAUAAUGCUGCUUC [hsa-mir-6809] | -1.25

Sequence | pull-down binding Z-score
GGAUCCCAGAUCAAACCAGGCCC [hsa-mir-331] | -0.859
GGAUGAAAGUCAAAGAAUCC [hsa-mir-1262] | -0.564
GGAUGGCCAGGGAAGUAUGCCGGGCCUUGGCAUUUC [hsa-mir-7159] | 2.04
GGAUGGGAGACCUGACCCAUCC [hsa-mir-5195] | 0.74
GGAUGUGUUGACCCCUGAAGUGGUUCUGAUGACCUUUCC [hsa-mir-6883] | -1.11
GGAUUUGCUUCCUGUCACAAAUCA [hsa-mir-23a] | -1.51
GGCACCUACGAUACCCAGUGCC [hsa-mir-3116-2] | -0.645
GGCACUGGGUAUCGUAGGUGCC [hsa-mir-3116-1] | 2.06
GGCAGAAAUGUC [hsa-mir-8053] | 0.69
GGCAGGAGGCAGUGAAGUAACUUGC [hsa-mir-3934] | -0.848
GGCAGGGGGAGCUGCAGGGCUAUGGGAGGGGCCCCAGCGUCUGA [hsa-mir-1233-2_1233-1] | 2.96
GGCAGGGUCCUCCAGCUCAUUCCUCCUGCC [hsa-mir-6829] | 0.723
GGCAGGUGCCUCCGUGUUGCCGAACCCUCCU [hsa-mir-6761] | -0.447
GGCAGGUGUGGUUGGAGGAAGCAGCCUGAACCUGCC [hsa-mir-6778] | 0.663
GGCAGUGGUUCUAAAAGCUGUC [hsa-mir-3618] | 0.498
GGCAUCAGAGGACAGCCGCCUGGUGCC [hsa-mir-4641] | 0.915
GGCAUCCCCAUUGCU [hsa-mir-4304] | -0.987
GGCAUCUAGCACAGGCGGUAGAUGCU [hsa-mir-4486] | 0.983
GGCAUCUAGGCUGUGCACAGUGACGCC [hsa-mir-4749] | 0.317
GGCCACCCAGGGAGUAAGUAGCC [hsa-mir-4480] | 0.515
GGCCAUCUGCUAUUCGUCCACCAACCUGACUUGAUCC [hsa-mir-7111] | 0.0541
GGCCAUCUGGCC [hsa-mir-4252] | 0.63
GGCCCCAGGAAGAAGGGCCUGGUGGAGCC [hsa-mir-6743] | 2.82
GGCCGGUCAGGCA [hsa-mir-4689] | 1.09

tested on: TO-3-N3 (biotin conjugate); test: as above; details: RNA library: Library-2
Method in brief: as §1

Sequence | pull-down binding Z-score
GCUUCUGCUGCAUGAUCUCCGAGUCCCUGGGGGUAGAGAUGAUGGGGCACUGGGAGGU [hsa-mir-1282] | 0.113
GCUUGCUGUACAUAACUCAAUAGCCGGAAGC [hsa-mir-129-2] | -0.0763
GCUUGCUGUUCCUCUCAACAGUAGUCAGGAAGC [hsa-mir-129-1] | -0.169
GCUUGGAGCCUUGGUAGGGAAGCAAGCUGAGGAGAUAGGA [hsa-mir-7154] | 1.22
GCUUUAUGUCCUGACCCAGCUAAAGC [hsa-mir-22] | 0.3
GCUUUCUGUGGUCAGAAAGAAAAGCAAGU [hsa-mir-520f] | 0.636
GCUUUUCACCUGUGAUCCCAGGAGAGGAAGC [hsa-mir-646] | -0.299
GGAAACUGAGACUUUGUAACUAUGUCUCAGUCUCA [hsa-mir-452] | -0.179
GGAAAGGGGAUGCAGAGCCCUGCC [hsa-mir-4647] | 1.28
GGAACACUAUAUUAAUCAGGUUUCC [hsa-mir-6509] | -0.609
GGAAGAAGGCUGAGGGAGAUGCCUUCUUCC [hsa-mir-6512] | -0.455
GGAAGACACAUGAGCAGUGCCUCCACUUCACGCCUCUCCC [hsa-mir-6780b] | 0.265
GGAAGGGAGCCCCAUUUACAGUGGUAACUUCCUUUCC [hsa-mir-5006] | 1.35
GGAAGGGCGCCUGUGCUUCGUCC [hsa-mir-572] | 0.31
GGAAUAGUGCUCCUGGUUGUUUC [hsa-mir-1180] | -0.548
GGAAUCCUACGUGAGGGACAAUCAUUCAGACCCACGUAGCAGUGUUCU [hsa-mir-1299] | 0.353
GGACAGGGAUUCUUUUCACUGUU [hsa-mir-599] | -0.0902
GGACAUCCUUCCAUAGUAAAUAAGCGGUGCC [hsa-mir-8064] | -0.38

Reference: the supplement of paper PMC11865577
